In patent US20250263441A1 (Metanovas Biotech Inc., priority 2024, published 2025):
In brackets after ≈: the same amount, converted by molar mass. Several values for one entry are separate records, joined by “and”; a condition that tells them apart may be missing. Identical values can stand only once.

What was measured:
Type in all cases: cell-based
[1] = test system: Mouse macrophage RAW264.7 cells; assay: NO concentration after treatment of LPS-stimulated RAW264.7 cells; settings: Dexamethasone positive control; LPS 10 ng/ml, 24 hours; replicate experiments
Experimental: (§1) (1) Mouse macrophage RAW264.7 cells were cultured in DMEM supplemented with 10% fetal bovine serum (FBS) and 1% penicillin and streptomycin (P/S) at 37° C. in a 5% CO2 incubator.
(§2) (2) 5×10^4 mouse-derived RAW264.7 macrophages were placed in 12-well cell culture plates and cultured for 24 hours. Then, 20 μL of PBS (negative control), Dexamethasone (positive control), and the test peptide were added to the wells for incubation for 2 hours. Afterward, 10 ng/ml of lipopolysaccharide (LPS) was mixed with RAW264.7 cells and incubated for 24 hours.
(§3) (3) The supernatant was collected, and NO and IL-6/IL-1ß expression levels were measured using a commercial kit.

[2] = test system: Mouse macrophage RAW264.7 cells; assay: IL-6 and IL-1β protein concentration in LPS-stimulated RAW264.7 cells (ELISA); settings: Dexamethasone positive control; LPS 10 ng/ml, 24 hours; repeated experiments
Experimental: as §1, §2, §3
2. After treating RAW264.7 cells with peptide AMP-33, an ELISA kit was used to detect the concentration of IL-6 and IL-1β proteins.

[3] = test system: Escherichia coli; assay: Minimum inhibitory concentration on Escherichia coli (liquid culture); settings: for Minimum inhibitory concentration on Escherichia coli: 37° C., 24 to 48 hours
Experimental: (§4) Primary screening of liquid culture: the peptides in Examples 1 to 2 were dissolved in pure water to a concentration of 100 μg/mL. Using a micropipette, 10 μL of the peptides were added to a new 96-well plate in order from left to right, starting from the second compartment. Positive and negative controls were established for use. The 96-well plates were arranged vertically, and the peptide concentrations in the control groups were the same as those of the antimicrobial peptides. The control groups included: pure water and bacteria, antimicrobial peptide FK13 and bacteria, antimicrobial peptide HPA3NT3 and bacteria, and ciprofloxacin and bacteria. An aseptic medium was used.
(§5) If a 96-deep-well plate was used to culture bacteria, an additional 100 μL of sterile medium was added to all wells.
(§6) E. coli was inoculated in LB medium with normal oxygen concentration (21%) for 48 hours. E. coli clones were picked and incubated in LB medium at 37° C. with normal oxygen concentration (21%) for an additional 48 hours. The bacterial concentration was measured and diluted to 107 CFU/mL with culture medium for use.
(§7) The prepared fresh bacterial suspension was diluted to 105 CFU/mL and added to the 96-well plate with 90 μL of the bacterial suspension per well. The plate was incubated at 37° C. with a normal oxygen concentration for 24 to 48 hours (Propionibacterium acnes was cultured anaerobically at 37° C. for 24 to 48 hours in an anaerobic bag). The absorbance at 630 nm was measured using a microplate reader, and the degree of turbidity was observed by the naked eye.
(§8) (iv) Repetition of Operations: The Operations in (iii) were Repeated Twice, and the Decision to Perform a Third Repetition was Based on the Reproducibility of the Experiment.

[4] = test system: Staphylococcus aureus; assay: Minimum inhibitory concentration on Staphylococcus aureus (liquid culture); settings: for Minimum inhibitory concentration on Staphylococcus aureus: 37° C., 24 to 48 hours
Experimental: as §4, §5
Staphylococcus aureus was inoculated in LB medium with a normal oxygen concentration (21%) for 48 hours. Staphylococcus aureus clones were picked and incubated in LB medium at 37° C. with a normal oxygen concentration (21%) for an additional 48 hours. The bacterial concentration was measured and diluted to 107 CFU/mL with culture medium for use.
as §7, §8

[5] = test system: Propionibacterium acnes; assay: Minimum inhibitory concentration on Propionibacterium acnes (liquid culture); settings: for Minimum inhibitory concentration on Propionibacterium acnes: anaerobic, 37° C., 24 to 48 hours
Experimental: as §4, §5
Propionibacterium acnes was inoculated on an anaerobic blood agar plate, placed in an anaerobic bag, and incubated anaerobically at 37° C. for 48 hours. Propionibacterium acnes clones were then picked and incubated anaerobically in liquid anaerobic broth medium at 37° C. for an additional 48 hours. The bacterial concentration was measured and diluted to 107 CFU/mL with culture medium.
as §7, §8

[6] = test system: Candida albicans; assay: Minimum inhibitory concentration on Candida albicans (liquid culture); settings: 37° C., 24 to 48 hours
Experimental: Primary screening of liquid culture: the peptides in Examples 1 to 2 were dissolved in pure water to a concentration of 100 μg/mL. Using a micropipette, 10 μL of the peptides were added to a new 96-well plate in order from left to right, starting from the second compartment. Positive and negative controls were established for use. The 96-well plates were arranged vertically, and the peptide concentrations of the control groups were the same as those of the antimicrobial peptide. The control groups consisted of: pure water and bacteria, antimicrobial peptide FK13 and bacteria, and antimicrobial peptide HPA3NT3 and bacteria. An aseptic medium was used. The amino acid sequence of FK13 is […] (SEQ ID NO: 5), and the amino acid sequence of HPA3NT3 is […] (SEQ ID NO: 6).
as §5
as §6, with “Candida albicans was” for “E. coli was”, “for” for “for an additional”
The prepared fresh bacterial suspension was diluted to 105 CFU/mL and added to the 96-well plate with 90 μL of the bacterial suspension per well, and incubated at 37° C. with normal oxygen concentration for 24 to 48 hours. The absorbance at 630 nm was measured with a microplate reader, and the degree of turbidity was observed by the naked eye.
as §8

[7] = test system: rabbit blood erythrocytes; assay: Measurement of hemolytic concentration; settings: for Hemolysis rate: 37° C., 1 hour, replicate wells; for Minimum hemolytic concentration: rabbit erythrocytes
Experimental: 4 mL of 2% rabbit blood erythrocytes were washed twice with 4 mL PBS and centrifuged at 3000 rpm for 5 minutes. The supernatant was discarded, and the rabbit blood erythrocytes were resuspended in 4 mL PBS. 160 μg of the peptides from Examples 1 to 2, FK13, and HPA3NT3 were independently dissolved in 1 mL PBS buffer to prepare the peptide mother solutions with a concentration of 160 μg/mL. Subsequently, the peptide mother solutions were diluted with PBS buffer to concentrations of 80 μg/mL, 64 μg/mL, 32 μg/mL, 16 μg/mL, and 8 μg/mL. 100 μL of the 2% rabbit blood erythrocytes and 100 μL of different concentrations of peptides (80 μg/mL, 64 μg/mL, 32 μg/mL, 16 μg/mL, 8 μg/mL) were added to each well of a 96-well plate. In the negative control, 100 μL of PBS buffer was added, while in the positive control, 100 μL of 0.1% (w/v) Triton X-100 was added. Three replicate wells were set up for each group and incubated at 37° C. for 1 hour. The 96-well plate was then removed, centrifuged at 3000 rpm for 5 minutes, and 100 μL of supernatant was aspirated and transferred to a new 96-well plate. The absorbance was measured at 540 nm using an enzyme meter. Hemolysis rate (%)=((Absorbancesample−Absorbancenegative)/(Absorbancepositive−Absorbancenegative))*100%.

[8] = test system: HaCat (human immortalized epidermal cells) cells; assay: Cytotoxic assay (CCK-8) in HaCat cells; settings: 60 hours
Experimental: Preparation of Cell Suspension: HaCat (human immortalized epidermal cells) cells were counted and inoculated into 96-well plates. 100 μL of cell suspension was added to each well, corresponding to a density of 5×10^4 cells per well, with three replicates for each sample. The cells were cultured in a 37° C. incubator for 4 hours until they were attached to the plate. Peptides from the examples, as well as FK13 and HPA3NT3, were then added at concentrations of 80 μg/mL, 32 μg/mL, and 8 μg/mL. The cells were incubated at 37° C. for 60 hours. Afterward, 10 μL of CCK-8 solution was added, and the cells were cultured for an additional 2 hours. The absorbance of the peptides at 450 nm was measured using a dual-wavelength detector, with a detection wavelength of 450-490 nm and a reference wavelength of 600-650 nm.

Molecule	NO concentration [1]	IL-1β protein concentration [2]	IL-6 protein concentration [2]	MIC ([3]; Escherichia coli, read-out: Minimum inhibitory concentration on Escherichia coli) [µg/mL]	MIC ([4]; Staphylococcus aureus, read-out: Minimum inhibitory concentration on Staphylococcus aureus) [µg/mL]	MIC ([5]; Cutibacterium acnes, read-out: Minimum inhibitory concentration on Propionibacterium acnes) [µg/mL]	Minimum inhibitory concentration on Candida albicans [6] [µg/mL]	Minimum inhibitory concentration on Escherichia coli [3] [µg/mL]	Minimum inhibitory concentration on Staphylococcus aureus [4] [µg/mL]	Minimum inhibitory concentration on Propionibacterium acnes [5] [µg/mL]	Hemolysis rate ([7]; 8 μg/mL)	Hemolysis rate ([7]; 16 μg/mL)	Hemolysis rate ([7]; 32 μg/mL)	Hemolysis rate ([7]; 64 μg/mL)	Hemolysis rate ([7]; 80 μg/mL)	Minimum hemolytic concentration [7] [µg/mL]	Maximum cytotoxicity-free concentration [8] [µg/mL]
C[C@@H]1C[C@H]2[C@@H]3CCC4=CC(=O)C=C[C@]4(C)[C@@]3(F)[C@@H](O)C[C@]2(C)[C@@]1(O)C(=O)CO [Dexamethasone, reference compound]	6.80 µM and 6.06 µM and 3.43 µM	75.1 pg/mL and 44 pg/mL	14.2 pg/mL and 23.9 pg/mL														
O=C(O)c1cn(C2CC2)c2cc(N3CCNCC3)c(F)cc2c1=O [ciprofloxacin]				0.25 (≈ 0.754 µM)	0.25 (≈ 0.754 µM)	0.25 (≈ 0.754 µM)											
Example 1: GIFKKITGKLFKWIK (designated as AMP5)							25	50	50	8	14.6% and −0.9% and 2.8%	5.9% and 1.8% and 80.0%	62% and 2.8% and −1.9%	3.7% and −1.0% and 3.8%	14.6% and −0.9% and 2.8%	3.7	80
FK13: antimicrobial peptide FK13, FPLTWLKWWKWKKK [reference compound]							25	50	4	4	3.9% and 7.2% and 5.9%	3.4% and 2.5% and 0.4%	2.5% and 3.1% and 5.0%	5.3% and 2.5% and 2.7%	27.0% and 21.5% and 27.4%	64.0	80
HPA3NT3: antimicrobial peptide HPA3NT3, FKRLKKLFKKKKIWNWK [reference compound]							50	25	4	2	2.4% and 6.2% and 4.7%	23% and −0.2% and 0.4%	2.7% and 1.4% and 7.8%	21.4% and −0.8% and 0.6%	9.7% and 8.5% and 13.7%	64.0	32
